# Measured values taken from patent US8058507B2, “HOPM1 mediated disease resistance to Pseudomonas syringae in Arabidopsis” (priority 2007, dated 2011).
# B1: full-length HopM1: Pst DC3000 type III effector, 712-aa virulence protein (SEQ ID NO:34) (protein)
# chain: MISSRIGGAGGVELSRVNQQHDTVPAQTAHPNAVTAGMNPPLTPDQSGSHATESSSAGAARLNVAARHTQLLQAFKAEHGTAPVSGAPMISSRAALLIGSLLQAEPLPFEVMAEKLSPERYQLKQFQGSDLQQRLEKFAQPGQIPDKAEVGQLIKGFAQSVADQLEHFQLMHDASPATVGQHAKADKATLAVSQTALGEYAGRASKAIGEGLSNSIASLDEHISALDLTLQDAEQGNKESLHADRQALVDAKTTLVGLHADFVKSPEAKRLASVAAHTQLDNVVSDLVTARNTVGGWKGAGPIVAAAVPQFLSSMTHLGYVRLSTSDKLRDTIPETSSDANMLKASIIGMVAGIAHETVNSVVKPMFQAALQKTGLNERLNMVPMKAVDTNTVIPDPFELKSEHGELVKKTPEEVAQDKAFVKSERALLNQKKVQGSSTHPVGELMAYSAFGGSQAVRQMLNDVHQINGQTLSARALASGFGGAVSASSQTLLQLKSNYVDPQGRKIPVFTPDRAESDLKKDLLKGMDLREPSVRTTFYSKALSGIQSSALTSALPPVTAQAEGASGTLSAGAILRNMALAATGSVSYLSTLYTNQSVTAEAKALKAAGMGGATPMLDRTETALNNIRHPNRESLPHTFQKSTLSGIPRVAENAYHMGRGALQLPTQMAVDTVRVVDEGVLNAVASAREALKQPTKDDDALRALEEGLLDPR
# modifications: 6xHis tag; Pseudomonas syringae pv. tomato str. DC3000
# Experiments:
# [1] = system: Arabidopsis Y2H cDNA library; experiment: Yeast two-hybrid (Y2H) screening with HopM1 baits; type: binding; settings: protein used as bait
# Source text: A LexA-based yeast two-hybrid system was used for screening an Arabidopsis Y2H cDNA library using full-length HopM1 and the dominant-negative domain of HopM1 (HopM11-300) as bait, in separate screenings. This system was based upon a pGilda Lex A expression vector (CLONTECHniques, OCTOBER 1999 p. 26-27, Clontech Laboratories Inc.; herein incorporated by reference in its entirety) for expressing HopM1 proteins in combination with a lacZ reporter gene on a separate plasmid that autonomously replicated in yeast (CLONTECHniques, OCTOBER 1999 p. 26-27, Clontech Laboratories Inc.; herein incorporated by reference in its entirety), see below for addition information (see, MATCHMAKER LexA Two-Hybrid System Catalog #K1609-1 and MATCHMAKER LexA Libraries User Manual (PT3040-1) Version It PR67300 and (Yeast Protocols Handbook, Protocol # PT3024-1 Version # PR13103, published 14 Mar. 2001; herein incorporated by reference in its entirety).
# hopM1 DNA fragments were amplified by PCR using the primers listed below and standard PCR procedures then fragments were isolated and cloned into a bait vector pGilda Lex A (resistance to ampicillin (100 μg/ml) to E. coli hosts; Protocol # PT3147-5; Version # PR81829; Clontech Laboratories, Inc.; herein incorporated by reference in its entirety). […]
# [2] = system: AtMIN proteins; experiment: Immunoblot of AtMIN proteins co-expressed with HopM1 in yeast; type: cell-based, Arabidopsis thaliana; settings: co-expression in yeast
# Source text: AtMIN fusion proteins expressed from pB42AD were visualized by the HA epitope antibody, as was AtMIN10-HA. HopM1 fusion proteins expressed from pGilda were visualized by the LexA antibody. Coomassie Brilliant Blue-stained gels were used as loading controls. […] AtMIN12 (a putative protein predicted to be targeted to the chloroplast) was not destabilized.
# HopM11-300 or full-length HopM1 pGILDA and each individual test AtMIN pB42AD were co-transformed into yeast cells as described in EXAMPLE III.
# Immunoblot analysis was then performed on yeast cells lines that expressed one each of the 21 AtMIN proteins co-expressed with either HopM11-300 or full-length HopM1(1-712). […] For comparison, AtMIN12 (a hypothetical protein predicted to be targeted to the chloroplast) was not destabilized (FIG. 6A).
# [3] = system: AtMIN2, AtMIN7, and AtMIN 10; experiment: Immunoblot of AtMIN-HA proteins transiently co-expressed with HopM1 in N. benthamiana leaves; type: cell-based, Arabidopsis thaliana; settings: DEX-induced expression in N. benthamiana leaves
# Procedure: Oligonucleotide primers used for amplifying hopMl and AtMIN genes from Pst DC3000 genomic DNA or Arabidopsis total cDNA, as applicable, used for creating these expression vectors are shown in FIG. 14. Two days after leaf infiltration, 0.3 μM DEX was applied to induce the expression of HopM11-712, or HopM11-300 or HopM11-712. Three hours after DEX treatment, leaf discs were taken for subsequent analyses using immunoblotting or co-immunoprecipitation experiments (see, EXAMPLES herein for procedures).
# Plant cells expressing 6×His-HopM1 and AtMIN-HA proteins in N. benthamiana leaves were engineered to co-express a second transiently expressed protein, either full-length 6×His-HopM1 or 6×His-HopM11-300. […] Specifically, AtMIN7-HA was pulled down with HopM11-300, but not with 6×His-HopM1301-712. Please note that membrane associated AtMIN 10-HA was preferably eliminated during bacterial infection. Arrows indicate lanes in which DEX-induced expression of full-length HopM1 destabilized AtMIN2, AtMIN7, and AtMIN 10 (FIG. 6B).
# Expression Plasmids for Nicotiana cells: For transient expression studies in Nicotiana benthamiana; expression plasmids were engineered to express C-terminal HA epitope-tagged AtMIN proteins using a constitutive CaMV 35S promoter operably linked to AtMIN sequences. […]
# [4] = system: AtMIN10-HA; experiment: Immunoblot of AtMIN10-HA in transgenic plants infiltrated with ΔCEL mutant bacteria (pORF43); type: in vivo, Arabidopsis; settings: HopM1 delivered by 1×10^8 CFU/ml ΔCEL mutant bacteria (pORF43)
# Procedure: In brief: leaf disc fractions were homogenized in 1×SDS-polyacrylamide gel electrophoresis (PAGE) sample buffer, boiled for 5 min, and centrifuged for 2 minutes. Proteins in the supernatant were separated on SDS-PAGE gels and transferred to Immobilon-P membrane for immunoblotting procedures (Millipore Corp., Bedford, Mass.).
# Furthermore AtMIN10-HA stably expressed in transgenic plants was also destabilized by HopM1. Leaves of AtMIN10-HA transgenic plants were infiltrated with water or 1×10^8 CFU/ml ΔCEL mutant bacteria or ΔCEL mutant bacteria (pORF43). AtMIN10-HA was detected using the HA epitope antibody.
molecule,measurement,setting,value
B1,interactors recovered in Y2H screen,[1],failed to recover target interactor host proteins
same,destabilization of AtMIN proteins in yeast,[2],destabilized
same,"destabilization of AtMIN2, AtMIN7 and AtMIN10",[3],destabilized
same,stability of AtMIN10-HA,[4],destabilized
